Experimental data reported in article PMC10663602.

Biological target: teleost IgM Fc (tFcµ): truncated teleost IgM heavy chain consisting of CHµ3, CHµ4 and the Tp (Oncorhynchus mykiss (rainbow trout))
Assay: cryo-EM structure; purified tFcµ tetramer fractions in TBS (20 mM Tris-HCl, NaCl, pH 7.8), 0.1 mg/mL on grids; map at 2.78 Å, C2 symmetry

- stoichiometry N: 4
Substance: teleost IgM Fc (tFcµ): truncated teleost IgM heavy chain consisting of CHµ3, CHµ4 and the Tp (domain or fragment)
